Experimental data: the supplement of paper PMC10201428
± gives the standard deviation of the averaged measurements.

Columns and labels:
[1] = tested on: VchCAST RNA-guided transposition machinery (E. coli BL21(DE3) host, lacZ target); assay: relative integration efficiency (T-LR orientation) vs wild-type transposon end (log2 (normalized fold change)); transposon end mutated: right end (5 bp flank + 75 bp right end); higher = more efficient transposition
Summary of the method: (§1)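 Barcode abundances in input plasmids and in genomic integration junctions were obtained by PCR amplification and Illumina sequencing. These came from E. coli BL21(DE3) co-transformed with a T7-driven effector plasmid and a pUC57 donor carrying 1549 left-end or 1849 right-end transposon variants, then plated with 0.1 mM IPTG at 37°C for 18 h. Relative integration efficiency is the output/input fold change, normalised to reference barcodes and log-transformed.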

[2] = tested on: VchCAST RNA-guided transposition machinery (E. coli BL21(DE3) host, lacZ target); assay: relative integration efficiency (T-RL orientation) vs wild-type transposon end (log2 (normalized fold change)); transposon end mutated: right end (5 bp flank + 75 bp right end); higher = more efficient transposition
Summary of the method: as §1

ACATTTGTTGATACAACCATAAAATGATAATTACACCCATAAATTGATACGGCTCACACCCATAAATTGATATTGCCTCTGATCATAGTCAGACCAACATTGCTACGACCCGTATTCGCACCGACAC
relative integration efficiency (log2) [1]: 0.173 ± 0.15
relative integration efficiency (log2) [2]: -0.622 ± 0.074

ACATTTGTTGATACAACCATAAAATGATAATTACACCCATAAATTGATACGTATCACACCCATAAATTGATATTGCCTCTGATCATAGTCAGACCAACATTGCTACGACCCGTATTCGCACCGACAC
relative integration efficiency (log2) [1]: -0.44 ± 0.48
relative integration efficiency (log2) [2]: -0.704 ± 0.012

ACATTTGTTGATACAACCATAAAATGATAATTACACCCATAAATTGATATAATTCACACCCATAAATTGATATTGCCTCTGATCATAGTCAGACCAACATTGCTACGACCCGTATTCGCACCGACAC
relative integration efficiency (log2) [1]: 0.18 ± 0.19
relative integration efficiency (log2) [2]: -0.233 ± 0.14

ACATTTGTTGATACAACCATAAAATGATAATTACACCCATAAATTGATATATATCACACCCATAAATTGATATTGCCTCTGATCATAGTCAGACCAACATTGCTACGACCCGTATTCGCACCGACAC
relative integration efficiency (log2) [1]: 4.91e-05 ± 0.14
relative integration efficiency (log2) [2]: -0.313 ± 0.16

ACATTTGTTGATACAACCATAAAATGATAATTACACCCATAAATTGATATCACACCCATAAATTGATATTGCCTCTGATCATAGTCAGACCAACATTGCTACGACCCGTATTCGCACCGACACTGAC
relative integration efficiency (log2) [1]: 2.45 ± 0.18
relative integration efficiency (log2) [2]: -1.06 ± 0.31

ACATTTGTTGATACAACCATAAAATGATAATTACACCCATAAATTGATATTGCTCACAACCATAAAATGATAATTACTCTGATCATAGTCAGACCAACATTGCTACGACCCGTATTCGCACCGACAC
relative integration efficiency (log2) [1]: 0.106 ± 0.059
relative integration efficiency (log2) [2]: -0.532 ± 0.27

ACATTTGTTGATACAACCATAAAATGATAATTACACCCATAAATTGATATTGCTCACAACCATAAAGTGATATTTACTCTGATCATAGTCAGACCAACATTGCTACGACCCGTATTCGCACCGACAC
relative integration efficiency (log2) [1]: 0.269 ± 0.25
relative integration efficiency (log2) [2]: -0.424 ± 0.093

ACATTTGTTGATACAACCATAAAATGATAATTACACCCATAAATTGATATTGCTCACAACCATAAGTTGATATTTTCTCTGATCATAGTCAGACCAACATTGCTACGACCCGTATTCGCACCGACAC
relative integration efficiency (log2) [1]: 0.538 ± 0.11
relative integration efficiency (log2) [2]: -0.473 ± 0.17

ACATTTGTTGATACAACCATAAAATGATAATTACACCCATAAATTGATATTGCTCACAACCATATATTGATATCTCCTCTGATCATAGTCAGACCAACATTGCTACGACCCGTATTCGCACCGACAC
relative integration efficiency (log2) [1]: 0.579 ± 0.21
relative integration efficiency (log2) [2]: -0.74 ± 0.17

ACATTTGTTGATACAACCATAAAATGATAATTACACCCATAAATTGATATTGCTCACACCCATAAATTGATAATTACTCTGATCATAGTCAGACCAACATTGCTACGACCCGTATTCGCACCGACAC
relative integration efficiency (log2) [1]: 0.634 ± 0.033
relative integration efficiency (log2) [2]: -0.432 ± 0.2

ACATTTGTTGATACAACCATAAAATGATAATTACACCCATAAATTGATATTGCTCACACCCATAAATTGATATTGCCTCTGATCATAGTCAGACCAACATTGCTACGACCCGTATTCGCACCGACAC
relative integration efficiency (log2) [1]: 0.786 ± 0.29
relative integration efficiency (log2) [2]: -0.394 ± 0.045

ACATTTGTTGATACAACCATAAAATGATAATTACACCCATAAATTGATATTGCTCAGTGGGTATTTAACTATAACGCTCTGATCATAGTCAGACCAACATTGCTACGACCCGTATTCGCACCGACAC
relative integration efficiency (log2) [1]: 2.58 ± 0.34
relative integration efficiency (log2) [2]: -0.891 ± 0.23

ACATTTGTTGATACAACCATAAAATGATAATTACACCCATAAATTGATCATTATCACCCCCAATTTAACTATAACGCTCTGATCATAGTCAGACCAACATTGCTACGACCCGTATTCGCACCGACAC
relative integration efficiency (log2) [1]: 1.9 ± 0.065
relative integration efficiency (log2) [2]: -1.35 ± 0.22

ACATTTGTTGATACAACCATAAAATGATAATTACACCCATAAATTGATCCGGATCACACCCATAAATTGATATTGCCTCTGATCATAGTCAGACCAACATTGCTACGACCCGTATTCGCACCGACAC
relative integration efficiency (log2) [1]: -0.388 ± 0.14
relative integration efficiency (log2) [2]: -0.929 ± 0.16

ACATTTGTTGATACAACCATAAAATGATAATTACACCCATAAATTGATCCGGCGACACAAACGCCCGGTCGCGGTAAGAGGATCATAGTCAGACCAACATTGCTACGACCCGTATTCGCACCGACAC
relative integration efficiency (log2) [1]: 2.09 ± 0.1
relative integration efficiency (log2) [2]: -0.942 ± 0.11

ACATTTGTTGATACAACCATAAAATGATAATTACACCCATAAATTGATCCTTATCACACCCATAAATTGATATTGCCTCTGATCATAGTCAGACCAACATTGCTACGACCCGTATTCGCACCGACAC
relative integration efficiency (log2) [1]: -0.418 ± 0.47
relative integration efficiency (log2) [2]: -0.973 ± 0.3

ACATTTGTTGATACAACCATAAAATGATAATTACACCCATAAATTGATTCACACCCATAAATTGATATTGCCTCTGATCATAGTCAGACCAACATTGCTACGACCCGTATTCGCACCGACACTGACT
relative integration efficiency (log2) [1]: 2.09 ± 0.12
relative integration efficiency (log2) [2]: -1.49 ± 0.24

ACATTTGTTGATACAACCATAAAATGATAATTACACCCATAAATTGATTTAAATCACACCCATAAATTGATATTGCCTCTGATCATAGTCAGACCAACATTGCTACGACCCGTATTCGCACCGACAC
relative integration efficiency (log2) [1]: -0.261 ± 0.15
relative integration efficiency (log2) [2]: -0.801 ± 0.11

ACATTTGTTGATACAACCATAAAATGATAATTACACCCATAAATTGATTTTTATCACACCCATAAATTGATATTGCCTCTGATCATAGTCAGACCAACATTGCTACGACCCGTATTCGCACCGACAC
relative integration efficiency (log2) [1]: 0.0005 ± 0.35
relative integration efficiency (log2) [2]: -0.629 ± 0.28

ACATTTGTTGATACAACCATAAAATGATAATTACACCCATAAATTGCGAATTATCACACCCATAAATTGATATTGCCTCTGATCATAGTCAGACCAACATTGCTACGACCCGTATTCGCACCGACAC
relative integration efficiency (log2) [1]: -0.682 ± 0.11
relative integration efficiency (log2) [2]: -0.3539 ± 0.00067

ACATTTGTTGATACAACCATAAAATGATAATTACACCCATAAATTGCGCCGGCGACACAAACGCCCGGTCGCGGTAAGAGGATCATAGTCAGACCAACATTGCTACGACCCGTATTCGCACCGACAC
relative integration efficiency (log2) [1]: 1.62 ± 0.053
relative integration efficiency (log2) [2]: -1.38 ± 0.23

ACATTTGTTGATACAACCATAAAATGATAATTACACCCATAAATTGCGCCTTATCACACCCATAAATTGATATTGCCTCTGATCATAGTCAGACCAACATTGCTACGACCCGTATTCGCACCGACAC
relative integration efficiency (log2) [1]: -0.939 ± 0.25
relative integration efficiency (log2) [2]: -1.39 ± 0.2

ACATTTGTTGATACAACCATAAAATGATAATTACACCCATAAATTGTAAATTATCACACCCATAAATTGATATTGCCTCTGATCATAGTCAGACCAACATTGCTACGACCCGTATTCGCACCGACAC
relative integration efficiency (log2) [1]: -0.553 ± 0.24
relative integration efficiency (log2) [2]: -0.602 ± 0.1

ACATTTGTTGATACAACCATAAAATGATAATTACACCCATAAATTGTATTTTATCACACCCATAAATTGATATTGCCTCTGATCATAGTCAGACCAACATTGCTACGACCCGTATTCGCACCGACAC
relative integration efficiency (log2) [1]: -0.327 ± 0.39
relative integration efficiency (log2) [2]: -0.924 ± 0.063

ACATTTGTTGATACAACCATAAAATGATAATTACACCCATAAATTTATTATTATCACACCCAATTTAACTATAACGCTCTGATCATAGTCAGACCAACATTGCTACGACCCGTATTCGCACCGACAC
relative integration efficiency (log2) [1]: 1.56 ± 0.26
relative integration efficiency (log2) [2]: -2.3 ± 0.59

ACATTTGTTGATACAACCATAAAATGATAATTACACCCATAAATTTCGCATTATCACACCCATAAATTGATATTGCCTCTGATCATAGTCAGACCAACATTGCTACGACCCGTATTCGCACCGACAC
relative integration efficiency (log2) [1]: -1.39 ± 0.6
relative integration efficiency (log2) [2]: -1.91 ± 0.14

ACATTTGTTGATACAACCATAAAATGATAATTACACCCATAAATTTCGCCGGCGACACAAACGCCCGGTCGCGGTAAGAGGATCATAGTCAGACCAACATTGCTACGACCCGTATTCGCACCGACAC
relative integration efficiency (log2) [1]: 0.788 ± 0.1
relative integration efficiency (log2) [2]: -2.05 ± 0.15

ACATTTGTTGATACAACCATAAAATGATAATTACACCCATAAATTTCTAATTATCACACCCATAAATTGATATTGCCTCTGATCATAGTCAGACCAACATTGCTACGACCCGTATTCGCACCGACAC
relative integration efficiency (log2) [1]: -0.772 ± 0.23
relative integration efficiency (log2) [2]: -0.945 ± 0.17

ACATTTGTTGATACAACCATAAAATGATAATTACACCCATAACGGTATAATTATCACACCCATAAATTGATATTGCCTCTGATCATAGTCAGACCAACATTGCTACGACCCGTATTCGCACCGACAC
relative integration efficiency (log2) [1]: -1.21 ± 0.31
relative integration efficiency (log2) [2]: -1.01 ± 0.024

ACATTTGTTGATACAACCATAAAATGATAATTACACCCATAACGGTCGCCGGCGACACAAACGCCCGGTCGCGGTAAGAGGATCATAGTCAGACCAACATTGCTACGACCCGTATTCGCACCGACAC
relative integration efficiency (log2) [1]: 0.674 ± 0.11
relative integration efficiency (log2) [2]: -2.35 ± 0.24

ACATTTGTTGATACAACCATAAAATGATAATTACACCCATAACGTGATAATTATCACACCCATAAATTGATATTGCCTCTGATCATAGTCAGACCAACATTGCTACGACCCGTATTCGCACCGACAC
relative integration efficiency (log2) [1]: 0.32 ± 0.18
relative integration efficiency (log2) [2]: 0.496 ± 0.076

ACATTTGTTGATACAACCATAAAATGATAATTACACCCATAATAACATAATTATCACACCCATAAATTGATATTGCCTCTGATCATAGTCAGACCAACATTGCTACGACCCGTATTCGCACCGACAC
relative integration efficiency (log2) [1]: -1.45 ± 0.04
relative integration efficiency (log2) [2]: -2.11 ± 0.092

ACATTTGTTGATACAACCATAAAATGATAATTACACCCATAATATGATAATTATCACACCCATAAATTGATATTGCCTCTGATCATAGTCAGACCAACATTGCTACGACCCGTATTCGCACCGACAC
relative integration efficiency (log2) [1]: -0.175 ± 0.045
relative integration efficiency (log2) [2]: -0.297 ± 0.039

ACATTTGTTGATACAACCATAAAATGATAATTACACCCATAATTTGATAATTACCACTCCCAATTTAACTATAACGCTCTGATCATAGTCAGACCAACATTGCTACGACCCGTATTCGCACCGACAC
relative integration efficiency (log2) [1]: 2.36 ± 0.071
relative integration efficiency (log2) [2]: -1.09 ± 0.25

ACATTTGTTGATACAACCATAAAATGATAATTACACCCATACCGGGATAATTATCACACCCATAAATTGATATTGCCTCTGATCATAGTCAGACCAACATTGCTACGACCCGTATTCGCACCGACAC
relative integration efficiency (log2) [1]: -2.1 ± 0.086
relative integration efficiency (log2) [2]: -2.211 ± 0.0089
